According to article PMC3343046, “Overexpression of the Catalytically Impaired Taspase1^T234V or Taspase1^D233A Variants Does Not Have a Dominant Negative Effect in T(4;11) Leukemia Cells” (PLoS ONE, 2012):

T1: TaspCyt (GFP-tagged Taspase1 with a C-terminal nuclear export signal) (human, UniProt Q9H6P5 1-420)
T1 construct: Threonine Aspartase 1 (Taspase1), human, 420 aa; open reading frame cloned from MV4;11 and THP-1 cells; Still catalytically active, so probably processed in cells into α- and β-subunits; also called GFP-TaspCyt; pTaspcyt; source: HeLa, transfected, in living cells; not shown: NES (strong nuclear export signal), C-terminal, kept
T1 sequence (looked up): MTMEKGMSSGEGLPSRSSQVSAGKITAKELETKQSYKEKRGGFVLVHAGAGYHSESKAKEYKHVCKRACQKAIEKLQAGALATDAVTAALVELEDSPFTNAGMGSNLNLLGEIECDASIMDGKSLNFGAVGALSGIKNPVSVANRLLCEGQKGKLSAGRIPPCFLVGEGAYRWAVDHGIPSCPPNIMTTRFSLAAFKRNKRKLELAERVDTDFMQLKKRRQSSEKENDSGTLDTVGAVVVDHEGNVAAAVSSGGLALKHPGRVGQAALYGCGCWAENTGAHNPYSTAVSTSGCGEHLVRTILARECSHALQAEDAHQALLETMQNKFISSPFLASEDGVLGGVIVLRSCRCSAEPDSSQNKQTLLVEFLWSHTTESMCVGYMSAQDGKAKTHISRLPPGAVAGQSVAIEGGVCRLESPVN

B1: Taspase1-mCherry (wild type) (enzyme, human, UniProt Q9H6P5 1-420, looked up)
chain: MTMEKGMSSGEGLPSRSSQVSAGKITAKELETKQSYKEKRGGFVLVHAGAGYHSESKAKEYKHVCKRACQKAIEKLQAGALATDAVTAALVELEDSPFTNAGMGSNLNLLGEIECDASIMDGKSLNFGAVGALSGIKNPVSVANRLLCEGQKGKLSAGRIPPCFLVGEGAYRWAVDHGIPSCPPNIMTTRFSLAAFKRNKRKLELAERVDTDFMQLKKRRQSSEKENDSGTLDTVGAVVVDHEGNVAAAVSSGGLALKHPGRVGQAALYGCGCWAENTGAHNPYSTAVSTSGCGEHLVRTILARECSHALQAEDAHQALLETMQNKFISSPFLASEDGVLGGVIVLRSCRCSAEPDSSQNKQTLLVEFLWSHTTESMCVGYMSAQDGKAKTHISRLPPGAVAGQSVAIEGGVCRLESPVN
notes: Threonine Aspartase 1 (Taspase1), human, 420 aa; open reading frame cloned from MV4;11 and THP-1 cells; The wild-type proenzyme is autoproteolytically processed in cells into α- and β-subunits; also called Tasp-mCherry; Tasp-mCh; source: HeLa, transfected, in living cells
B2: Tasp^T234V-mCherry (enzyme, human, UniProt Q9H6P5 1-420, looked up)
chain: MTMEKGMSSGEGLPSRSSQVSAGKITAKELETKQSYKEKRGGFVLVHAGAGYHSESKAKEYKHVCKRACQKAIEKLQAGALATDAVTAALVELEDSPFTNAGMGSNLNLLGEIECDASIMDGKSLNFGAVGALSGIKNPVSVANRLLCEGQKGKLSAGRIPPCFLVGEGAYRWAVDHGIPSCPPNIMTTRFSLAAFKRNKRKLELAERVDTDFMQLKKRRQSSEKENDSGTLDVVGAVVVDHEGNVAAAVSSGGLALKHPGRVGQAALYGCGCWAENTGAHNPYSTAVSTSGCGEHLVRTILARECSHALQAEDAHQALLETMQNKFISSPFLASEDGVLGGVIVLRSCRCSAEPDSSQNKQTLLVEFLWSHTTESMCVGYMSAQDGKAKTHISRLPPGAVAGQSVAIEGGVCRLESPVN
notes: Threonine Aspartase 1 (Taspase1), human, 420 aa, with Thr234 changed to Val; Not autoprocessed; stays a proenzyme; also called Taspase1^T234V-mCherry; catalytically dead Taspase1 mutant; source: HeLa, transfected, in living cells
B3: Tasp^D233A-mCherry (enzyme, human, UniProt Q9H6P5 1-420, looked up)
chain: MTMEKGMSSGEGLPSRSSQVSAGKITAKELETKQSYKEKRGGFVLVHAGAGYHSESKAKEYKHVCKRACQKAIEKLQAGALATDAVTAALVELEDSPFTNAGMGSNLNLLGEIECDASIMDGKSLNFGAVGALSGIKNPVSVANRLLCEGQKGKLSAGRIPPCFLVGEGAYRWAVDHGIPSCPPNIMTTRFSLAAFKRNKRKLELAERVDTDFMQLKKRRQSSEKENDSGTLATVGAVVVDHEGNVAAAVSSGGLALKHPGRVGQAALYGCGCWAENTGAHNPYSTAVSTSGCGEHLVRTILARECSHALQAEDAHQALLETMQNKFISSPFLASEDGVLGGVIVLRSCRCSAEPDSSQNKQTLLVEFLWSHTTESMCVGYMSAQDGKAKTHISRLPPGAVAGQSVAIEGGVCRLESPVN
notes: Threonine Aspartase 1 (Taspase1), human, 420 aa, with Asp233 changed to Ala; Impaired in autoproteolytic cis-cleavage; also called Taspase1^D233A-mCherry; highly attenuated Taspase1 variant; source: HeLa, transfected, in living cells

biological target: T1, TaspCyt (GFP-tagged Taspase1 with a …); assay: translocation-based protein interaction assay; living HeLa transfectants, 24 h after transfection; nuclear/nucleolar recruitment of a cytoplasmic fluorescent fusion by a nuclear/nucleolar fusion; fluorescence microscopy, and confocal microscopy with the Manders overlap coefficient R; details: partners not purified

**Q.** For B1, which “Manders overlap coefficient R” value is on record?
**A.** 0.387

**Q.** For B2, which “Manders overlap coefficient R” value is on record?
**A.** 0.388

**Q.** B3 was tested. Which “Manders overlap coefficient R” value did it give?
**A.** 0.394
